Experimental data from patent publication US20250243285A1 (Novartis, published 2025).

Columns and labels:
[1] = biological target: Folate receptor alpha on cells (SKOV3, A1847, T47D; low levels on 293T and IOSE 6) (human, UniProt P15328 25-234); assay: cell-based or functional assay
[2] = biological target: T1, EGFR on cells (A431; tumor cell lines; K562 cells electroporated with EGFR mRNA) (UniProt P00533 25-1210, limits assumed); assay: affinity of the scFv printed above the panel (legend paragraph 89; called KD, nM in paragraph 90); method and form of EGFR not given in the filing, text cites Zhou et al. 2007
T1 construct: whole, on cells; also called epidermal growth factor receptor

Folate receptor alpha on cells (SKOV3, A1847, T47D; low levels on 293T and IOSE 6), sequence (P15328 25-234, stated change not applied): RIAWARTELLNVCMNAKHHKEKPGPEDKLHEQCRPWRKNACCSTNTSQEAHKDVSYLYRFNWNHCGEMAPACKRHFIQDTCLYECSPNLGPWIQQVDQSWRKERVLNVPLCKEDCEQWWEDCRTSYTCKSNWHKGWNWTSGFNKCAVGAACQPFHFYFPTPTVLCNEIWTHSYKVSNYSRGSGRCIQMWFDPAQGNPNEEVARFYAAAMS

Binder | CAR expression kept after overnight co-culture with SKOV3 cells at the lowest E:T ratio [1] | frequency of CAR T cells expressing IFN-γ after incubation with FRAPOS SKOV3 cells, fold over MOv19 CAR T cells [1] [fold] | frequency of CAR T cells expressing IL-2 after incubation with FRAPOS SKOV3 cells, fold over MOv19 CAR T cells [1] [fold] | frequency of CAR T cells expressing TNF-α after incubation with FRAPOS SKOV3 cells, fold over MOv19 CAR T cells [1] [fold] | Kd [2] [nM]
C4-27z CAR (fully human anti-FRA C4 scFv linked to CD27 and CD3z signaling domains), on primary human T cells (other, not shown: large carriers) QLVESGGGLVQPGRSLRLSCTTSGFTFGDYAMIWARQAPGKGLEWVSSISSSSSYIYYADSVKGRFTISRDNAKNSLYLQMNSLRAEDTAVYYCARERYDFWSGMDVWGKGTTVTVSSGGGGSGGGGSGGSAQSALTQPASVSGSPGQSITISCTGTSSDVGSYNLVSWYQQHPGKAPKLMIYEGSKRPSGVSNRFSGSKSGNAASLTISGLQAEDEADYYCQSYDSSLSVVFGGGTKLTVLG | ~50 % of initial CAR expression | 5.6 | 9 | 6.1 | –
C10 (scFv, The CAR built from it is m23; also called C10 scFv (anti-EGFR, parental)) scFv: EVQLVQSGAEVKKPGSSVKVSCKASGGTFSSYAISWVRQAPGQGLEWMGGIIPIFGTANYAQKFQGRVTITADESTSTAYMELSSLRSEDTAVYYCAREEGPYCSSTSCYGAFDIWGQGTLVTVSSGGGGSGGGGSGGGGSQSVLTQDPAVSVALGQTVKITCQGDSLRSYFASWYQQKPGQAPTLVMYARNDRPAGVPDRFSGSKSGTSASLAISGLQSEDEADYYCAAWDDSLNGYLFGAGTKLTVL | – | – | – | – | 264

Further lines, results first:

CAR expression kept after overnight co-culture with SKOV3 cells at the lowest E:T ratio [1] | frequency of CAR T cells expressing IFN-γ after incubation with FRAPOS SKOV3 cells, fold over MOv19 CAR T cells [1] [fold] | frequency of CAR T cells expressing IL-2 after incubation with FRAPOS SKOV3 cells, fold over MOv19 CAR T cells [1] [fold] | frequency of CAR T cells expressing TNF-α after incubation with FRAPOS SKOV3 cells, fold over MOv19 CAR T cells [1] [fold] | Kd [2] [nM] | Binder
– | – | – | – | 88.2 | P3-5 (scFv, The CAR built from it is m22; also called P3-5 scFv (anti-EGFR)) scFv: EVQLVQSGAEVKKPGSSVKVSCKASGGTFSSYAISWVRQAPGQGLEWVGGIIPIFGTANYAQKFQGRVKITADESASTAYMELSSLRSEDTAVYYCAREEGPYCSSTSCYGAFDIWGQGTLVTVSSGGGGSGGGGSGGGGSQSVLTQDPAVSVALGQTVKITCQGDSLRSYLASWYQQKPGQAPTLVTYARNDRPAGVPDRFSGSKSGTSASLAISGLQSEDEADYYCAAWDDSLNGYLFGAGTKLTVL
– | – | – | – | 15.4 | P2-4 (scFv, The CAR built from it is m21; also called P2-4 scFv (anti-EGFR)) scFv: EVQLVQSGAEVKKPGSSVKVSCKASGGTFSSYAISWVRQAPGQGLEWMGGIIPIFGTANYAQKFQGRVTITADESTSTAYMELSSLRSEDTAVYYCAREEGPYCSSTSCYAAFDIWGQGTLVTVSSGGGGSGGGGSGGGGSQSVLTQDPAASVALGQTVKITCQGDSLRSYFASWYQQKPGQAPTLVMYARNDRPAGVPDRFSGSKSGTSASLAISGLQSEDEADYYCAAWDDSLNGYLFGAGTKLTVL
